From article PMC13189263

Assays:
N6-I3 Ab (human) = assay: SPR
N6-I2 Ab (human) = assay: SPR

Q: For BG505 MD39.3 SOSIP trimer, which Kd (N6-I3 Ab (human)) is on record?
A: 3 nM

Q: What about the Kd (N6-I2 Ab (human)) of the same substance?
A: 5.7 nM
